Source: patent US20240084003A1 (SIMCERE ZAIMING PHARMACEUTICAL, published 2024)

T1: human CD22 domain1-4-His (human, UniProt P20273 20-425)
T1 construct: also called hCD22 domain1-4-His; not shown: His tag
T1 sequence: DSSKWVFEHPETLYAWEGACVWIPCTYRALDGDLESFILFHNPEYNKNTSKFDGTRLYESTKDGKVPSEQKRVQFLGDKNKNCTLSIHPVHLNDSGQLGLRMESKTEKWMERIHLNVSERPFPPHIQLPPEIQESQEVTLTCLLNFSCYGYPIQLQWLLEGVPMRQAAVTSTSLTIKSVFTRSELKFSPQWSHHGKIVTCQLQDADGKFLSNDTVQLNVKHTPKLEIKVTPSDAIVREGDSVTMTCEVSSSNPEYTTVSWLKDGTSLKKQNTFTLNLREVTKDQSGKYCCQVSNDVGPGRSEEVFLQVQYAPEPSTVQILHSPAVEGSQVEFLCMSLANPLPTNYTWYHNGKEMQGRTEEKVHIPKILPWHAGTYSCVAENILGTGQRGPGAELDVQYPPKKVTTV

T2: monkey CD22 on HEK293T-monkey CD22 cells (monkey)
T2 construct: full-length entry expressed on stably transfected HEK293T cells
T2 chain: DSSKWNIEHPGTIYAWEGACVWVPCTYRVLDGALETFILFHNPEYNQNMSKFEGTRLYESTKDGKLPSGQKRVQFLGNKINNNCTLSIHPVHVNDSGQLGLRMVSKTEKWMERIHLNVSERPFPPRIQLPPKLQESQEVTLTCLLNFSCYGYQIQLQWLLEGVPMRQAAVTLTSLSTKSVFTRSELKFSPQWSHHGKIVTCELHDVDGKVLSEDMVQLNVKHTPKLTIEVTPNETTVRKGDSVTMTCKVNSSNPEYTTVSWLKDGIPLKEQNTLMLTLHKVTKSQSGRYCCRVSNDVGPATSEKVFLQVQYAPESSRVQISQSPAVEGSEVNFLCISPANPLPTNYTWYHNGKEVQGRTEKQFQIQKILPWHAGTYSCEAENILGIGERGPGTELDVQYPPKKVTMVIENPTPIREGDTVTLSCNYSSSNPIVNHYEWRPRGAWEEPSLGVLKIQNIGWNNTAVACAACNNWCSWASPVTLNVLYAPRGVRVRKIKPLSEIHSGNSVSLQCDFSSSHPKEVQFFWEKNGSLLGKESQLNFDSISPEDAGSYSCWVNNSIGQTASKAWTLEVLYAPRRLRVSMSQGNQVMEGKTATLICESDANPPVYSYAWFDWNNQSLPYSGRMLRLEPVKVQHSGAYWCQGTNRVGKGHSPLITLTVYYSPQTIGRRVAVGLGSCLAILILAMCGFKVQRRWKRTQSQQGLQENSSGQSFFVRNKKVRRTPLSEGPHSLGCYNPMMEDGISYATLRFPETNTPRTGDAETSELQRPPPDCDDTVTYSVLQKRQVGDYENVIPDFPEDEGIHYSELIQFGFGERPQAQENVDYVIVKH


Experiments:
human CD22 domain1-4-His = molecular target: T1, human CD22 domain1-4-His; experiment: ELISA, human CD22 domain1-4-His coated
[1] = molecular target: T2, monkey CD22 on HEK293T-monkey CD22 cells; experiment: FACS, HEK293T-monkey CD22 cells
Description: For suspension cell Raji, the medium supernatant was directly centrifuged and discarded, and the cell pellet was washed 2 times with PBS. After counting the cells in the previous step, the cell pellet was resuspended with [PBS+2% (w/w) BSA] blocking solution to 2×10⁶ cells/ml, and added to a 96-well FACS reaction plate at 50 μl/well, and then the chimeric antibody test sample was added at 50 μl/well, and incubated on ice for 2 hours. The mixture was centrifuged and washed 3 times with PBS buffer, Alexa Flour 488-labeled secondary antibody (purchased from Invitrogen, catalog number: A-11013) was added at 50 μl/well, and incubated on ice for 1 hour. The obtained mixture was centrifuged and washed 5 times with PBS, and FACS (FACS Canto™, purchased from BD Company) was used for detection and result analysis. Data analysis was performed by software (CellQuest) to obtain the mean fluorescence density (MFI)of the cells. And then software (GraphPad Prism8) was used for analysis, data fitting, and EC50 value calculation. […] The same method was used to detect the binding of the chimeric antibodies to endogenous CD22-negative cell MoLT4 cells (purchased from ATCC, CRL-1582) and CHO-K1 cells.
HEK293T-monkey CD22 cells were subjected to FACS detection and data analysis according to the method in Example 5.2.

Binder	EC50 (read off the curve) (human CD22 domain1-4-His)	EC50 [1]	Maximum mean fluorescence intensity [1]	binding result (human CD22 domain1-4-His)
HA22-hIgG1 (antibody, V domains shown) VH: EVQLVESGGGLVKPGGSLKLSCAASGFAFSIYDMSWVRQTPEKCLEWVAYISSGGGTTYYPDTVKGRFTISRDNAKNTLYLQMSSLKSEDTAMYYCARHSGYGTHWGVLFAYWGQGTLVTVSA VL: DIQMTQTTSSLSASLGDRVTISCRASQDISNYLNWYQQKPDGTVKLLIYYTSILHSGVPSRFSGSGSGTDYSLTISNLEQEDFATYFCQQGNTLPWTFGCGTKLEIKR [HA22-hIgG1, listing 1 of 2 here]	~60 pM	–	–	–
F1.120.15 (antibody, human IgG1, kappa, V domains shown, Human-murine chimeric IgG1, kappa) VH: QVQLQQSGPELVKPGASVKISCKASGNAFSNSWMNWVKQRPGKGLEWIGRVYSEDGDTQYNGKFRDKATLTADRSTSTAYMQLSSLTSEDSAVYFCARWLIYYGTYGAMDYWGQGTSVTVSS VL: DIQMTQTTSSLSASLGDRVTISCRASQDINNYLNWYHQKPDGTVKLLIYFTSRPYSGVPSRFSGSGSGTDYSLTISNLEQEDIATYFCQQGNTLPWTFGGGTKLEIKR	~200 pM	–	–	–
HA22-hIgG1 (antibody, V domains shown) VH: EVQLVESGGGLVKPGGSLKLSCAASGFAFSIYDMSWVRQTPEKCLEWVAYISSGGGTTYYPDTVKGRFTISRDNAKNTLYLQMSSLKSEDTAMYYCARHSGYGTHWGVLFAYWGQGTLVTVSA VL: DIQMTQTTSSLSASLGDRVTISCRASQDISNYLNWYQQKPDGTVKLLIYYTSILHSGVPSRFSGSGSGTDYSLTISNLEQEDFATYFCQQGNTLPWTFGCGTKLEIKR [HA22-hIgG1, listing 2 of 2 here]	–	1590 pM	31200 MFI	–
F2.55.1 (antibody, human IgG1, lambda, V domains shown, Human-murine chimeric IgG1, lambda) VH: QVTLKESGPGILQPSQTLSLTCSFSGFSLSTFPLGVGWIRQPSGKGLEWLAHVWWNDDDYYNPALKSRLTISKDTSNTRVFLSVASVDTAETATYYCARLNWDRWYFDVWGTGTTVTVSS VL: QLVLTQSSSASFSLGASAKLTCTLSSQHSAYTVEWYQQQPLKPPKYVMELKKDGSHSTGDGIPDRFSGSSSGADRYLSISNIQPEDEAIYICGVGDTVKEQFVFGGGTKVTVLG	~100 pM	–	–	–
F2.55.1 (antibody, human IgG1, lambda, V domains shown, human-murine chimeric IgG1 lambda; VL name legible) VH: QVTLKESGPGILQPSQTLSLTCSFSGFSLSTFPLGVGWIRQPSGKGLEWLAHVWWNDDDYYNPALKSRLTISKDTSNTRVFLSVASVDTAETATYYCARLNWDRWYFDVWGTGTTVTVSS VL: QLVLTQSSSASFSLGASAKLTCTLSSQHSAYTVEWYQQQPLKPPKYVMELKKDGSHSTGDGIPDRFSGSSSGADRYLSISNIQPEDEAIYICGVGDTVKEQFVFGGGTKVTVLG	–	34700 pM	5760 MFI	–
F2.205.9 (antibody, human IgG1, lambda, V domains shown, Human-murine chimeric IgG1, lambda) VH: QVTLKESGPGILQPSQTLSLTCSFSGFSLSTSGMGVGWIRQPSGKGLEWLAHIWWDDDEYYNPALKSRLTISKDTSKNQVFLKIANVDTADTATYYCARISIPYGYYDWFFDVWGTGTTVTVSA VL: QAVVTQESALTTSPGETVTLTCRSSTGAVTTRNYANWVQEKPDHLFTGLIGGTNNRAPGVPARFSGSLIGDKAALTITGAQTEDEAIYFCALWYSNHFIFGSGTKVTVLG	~40 pM	–	–	–
F2.151.13 (antibody, human IgG1, lambda, V domains shown, human-murine chimeric IgG1 lambda) VH: QVHLQQPGTELMKPGASVKLSCKATGYTFRDYWLEWVKQRPGHGLEWIGEILPGSGNAYYNEKFKGKATFTADTSSNTAYMQLSSLTTEDSAIYYCARVYSNWYFDAWGKGTTVTVSS VL: QAVVTQESALTTSPGETVTLTCRSSTGAVTTSNYANWVQEKPDHLFTGLIGGTNNQAPGVPARFSGSLIGDKAALTISGAQTEDEAIYFCALWFSNHWVFGGGTKLTVLG	–	1260 pM	30500 MFI	–
F2.205.9 (antibody, human IgG1, lambda, V domains shown, human-murine chimeric IgG1 lambda; VL name legible) VH: QVTLKESGPGILQPSQTLSLTCSFSGFSLSTSGMGVGWIRQPSGKGLEWLAHIWWDDDEYYNPALKSRLTISKDTSKNQVFLKIANVDTADTATYYCARISIPYGYYDWFFDVWGTGTTVTVSA VL: QAVVTQESALTTSPGETVTLTCRSSTGAVTTRNYANWVQEKPDHLFTGLIGGTNNRAPGVPARFSGSLIGDKAALTITGAQTEDEAIYFCALWYSNHFIFGSGTKVTVLG	–	400 pM	25400 MFI	–
F1.17.1 (antibody, human IgG1, kappa, V domains shown, Human-murine chimeric IgG1, kappa) VH: QVQLKESGPGLVAPSQSLSITCTVSGFSLSRYTVHWVRQPPGKGLEWLGMIWGGGSTDYNSALKSRLSISKDNSKSQVFLKMNSLQTDDTAMYYCARPHDFDAGGFAYWGQGTLVTVSA VL: QIVLTQSPAILSTSPGEKVTMTCSASSRVNYMYWYQQKPGSSPRLLIYDTSNLASGVPVRFSGSGSGTSYSLTISRMEAEDAATYYCQQWTSYPLTFGAGTKLELKR	~100 pM	–	–	–
F2.121.9 (antibody, human IgG1, lambda, V domains shown, human-murine chimeric IgG1 lambda) VH: EVQLVESGGGLVKPGGSLKLSCAASGFTFSDYVMSWIRQTPEKRLEWVATISDAGSYTFYPDNLKGRFTISRDNAKNNLYLQMNHLTSEDTAFYYCAIIYFGNYGGYWGQGTLVTVSV VL: QAVVTQESALTTSPGGTVVLTCRSNTGAVTTSNYANWVQEKPDHLFTGLIGGTSNRAPGVPVRFSGSLIGDKAALTITGAQTEDDAMYFCALWYSTHWVFGGGTKLTVLG	–	970 pM	19900 MFI	–
F2.173.9 (antibody, human IgG1, lambda, V domains shown, human-murine chimeric IgG1 lambda) VH: EVQLVESGGDLVKPGESLKLSCEASGFTFSNYAMSWVRQTPDRRLEWVATISSIGSFTYYSDSVKGRFTISRDNVKSTLHLQMNNLKSGDTAIYFCARLGVYFDSWGQGTTLTVSS VL: QLVLTQSSSASFSLGASAKLTCTLSSQHSTYTIEWYQQQPHKPPKFVMEIKKDGSHYTGDGIPDRFSGSSSGADRYLSISNIQPEDETIYICGVSDMIKDQFVYVFGGGTKVTVLG	–	2100 pM	22700 MFI	–
F1.216.2 (antibody, human IgG1, kappa, V domains shown, Human-murine chimeric IgG1, kappa) VH: QVQLQQSGPEVVRPGASVKISCKASGYAFSSSWMNWMKQRPGKALEWIGRIYPGDGDTNYSGEFKVKATLTADKSSSTAYMQLSSLTSEDSAVYFCAREGSYYSNPWYFDYWGQGTTLTVSS VL: DVLVTQTPLSLPVSLGDQASISCRSSQSIVQSNGDTYLEWYLQKPGQSPKLLIYKVSNRFSGVPDRFSGSGSGTDFTLKISRVEAEDLGVYYCFQGSHVPFTFGSGTKLEIKR	~20 pM	–	–	–
F1.224.1 (antibody, human IgG1, kappa, V domains shown, Human-murine chimeric IgG1, kappa) VH: EVLLHQSGPELVKPGASVKISCKASGYTFTDFNMDWVRQRHGQSLEWIGDVNPNNGGTIYNQKFKGKATLTVDKSSSTVYMDLRSLTSDDTAVYYCVRLGTSDYGEAWFISWGQGTVVTVSA VL: DIVLTQSPASLAVSLGQRATISCRASQSVSTPRYSFMHWYQQKPGQPPKLLIKYASNLESGFPARFTGSGSGTDFTLNIHPVEEEDTAAYYCQQSWAIPWTFGGGTKLEIKR	~30 pM	–	–	–
F1.105.11 (antibody, human IgG1, kappa, V domains shown, Human-murine chimeric IgG1, kappa) VH: EVQLQQSGPVLVKPGASVKMSCKASGYTFSDYFMNWVKQSHGKSLEWIGIINSYSGGTSYNQKFKGKATLTVDKSSSTAYMELNSLTSEDSAVYYCARWMDYWGQGTSVTVSS VL: DVQITQSPSYLAASPGETITINCRTSESISKHLAWYQEKPGKTNKLLIYSGSTLQSGIPSRFSGSGSGTDFTLTISSLEPEDFAMYYCQQHNEYPWTFGGGTKLEIKR	–	–	–	no binding (tested: 100 nM)
F1.200.11 (antibody, human IgG1, kappa, V domains shown, Human-murine chimeric IgG1, kappa) VH: QNQLVQSGPELKKPGETVKISCKASGYTFTTAGMQWVQKMPGKGFKWIGWINTLSGEPKYAEDFKGRFAFSLETSATTAYLQISNLKNEDTATYFCARAYYSNLYWYFDVWGTGTTVTVSS VL: DIVMTQSQKFMSTTVGDRVTITCKASQNVVTAVAWYQQKPGQSPKVLIYSASNRYSGVPDRFTGSGSGTDFTLTISNMHSEDLANYFCHQYSSYPFTFGSGTKLEIKR	–	–	–	no binding (tested: 100 nM)
